What all share (assay): purified protein
Substrate in series [1]: COc1ccccc1O
The conditions noted are these: pH 4, 45 °C, error = 95% confidence limits.

Substrate in series [2]: Nc1c(N=Nc2ccc(S(=O)(=O)CCOS(=O)(=O)O)cc2)c(S(=O)(=O)O)cc2cc(S(=O)(=O)O)c(N=Nc3ccc(S(=O)(=O)CCOS(=O)(=O)O)cc3)c(O)c12
The class given is biochemical, Irpex lacteus. The conditions noted are these: error = 95% confidence limits.

Substrate in series [3]: Nc1c(S(=O)(=O)O)cc(Nc2cccc(S(=O)(=O)CCOS(=O)(=O)O)c2)c2c1C(=O)c1ccccc1C2=O
The class given is biochemical, Irpex lacteus. The conditions noted are these: error = 95% confidence limits.

Substrate in series [4]: CCn1c(=NN=c2sc3cc(S(=O)(=O)O)ccc3n2CC)sc2cc(S(=O)(=O)O)ccc21
The class given is biochemical, Irpex lacteus. The conditions noted are these: error = 95% confidence limits.

Substrate in series [5]: COc1cccc(OC)c1O
The class given is biochemical, Irpex lacteus. Conditions: error = 95% confidence limits.

Substrate in series [6]: COc1ccc(CO)cc1OC
The class given is biochemical, Irpex lacteus. The conditions noted are these: 0.1 mM H2O2, 0.1 M sodium tartrate, pH 3.5, 45 °C, error = 95% confidence limits.

[7] abbreviates: 0.1 mM H2O2, 1 mM Mn2+, 0.1 M sodium tartrate.
Setting [8] is: 0.1 mM H2O2, 1 mM Mn2+, 0.1 M sodium tartrate, pH 3, 35 °C.
Setting [9] is: 0.1 mM H2O2, 1 mM Mn2+, 0.1 M sodium tartrate, pH 3.5, 45 °C.
[10] abbreviates: 0.1 mM H2O2, 1 mM Mn2+, 0.1 M sodium tartrate, pH 4.5, 55 °C.
The mark [11] stands for this setting: 0.1 mM H2O2, 0.1 M sodium tartrate.
The mark [12] stands for this setting: 0.1 mM H2O2, 0.1 M sodium tartrate, pH 4, 35 °C.
Where [13] appears, read: 0.1 mM H2O2, 0.1 M sodium tartrate, pH 4.5, 35 °C.
Setting [14] is: 0.1 mM H2O2, 0.1 M sodium tartrate, pH 3.5, 35 °C.

B1: Il-MnP6 (Irpex lacteus) (protein)
chain: TKRVACPDGKNTATNAACCALFAIRDDIQENLFDGGQCGEEVHESFRLTFHDAIGIGSNGGGGADGSIAVFEAIETAFHANNGVDEIIDEQKPFIARHNITPGDFIQFAGAVGVSNCPGAPRLDFFLGRPNPVAPAPDKTVPEPFDSVTSILARFKDAGNFSPEEVVALLGSHTIAAADHVDPTIPGTPFDSTPEVFDTQVFLEVQLRGTLFPGTAGNQGEVQSPLRGEIRLQSDHDLARDQRTACEWQSFVNNQAKLQRNFKAAFKKLSILGHDERRLIDCSEVIPEPPNVKVKPATFPAGLSNKDVEQACRATPFPTLPTDPGPSTSVAPVPPS
notes: 359 aa printed, predicted 23-aa signal peptide; short-type MnP
As to B1, the Km (usually the substrate concentration at which the rate is half of its maximum) stood at 2.6 ± 0.6 µM in the series “purified protein [1]” (setting [7]); 4.4 ± 0.7 µM in “purified protein [2]” (setting [8]); 81 ± 39.5 µM in the series “purified protein [3]” (setting [8]); 83 ± 6.5 µM in the series “purified protein [4]” (setting [9]); 53 ± 8.6 µM in the series “purified protein [5]” (setting [10]). For the same protein, the catalytic constant (kcat) (in general, the number of substrate molecules converted per active site and unit of time at saturation) in the series “purified protein [1]” (setting [7]) came out at 184 ± 7 s⁻¹; in “purified protein [2]” (setting [8]), 0.06 ± 0.003 s⁻¹; in the series “purified protein [3]” (setting [8]), 7.3 ± 2.6 s⁻¹; in “purified protein [4]” (setting [9]), 245 ± 7 s⁻¹; in “purified protein [5]” (setting [10]) it was 989 ± 100 s⁻¹. Besides, the kcat/Km entry in “purified protein [1]” (setting [7]) was “(7.1 ± 0.3) × 10^7 s^-1M^-1”; in the series “purified protein [2]” (setting [8]), “(1.5 ± 0.07) × 10^4 s^-1M^-1”; in the series “purified protein [3]” (setting [8]), “(9.0 ± 3.2) × 10^4 s^-1M^-1”; in “purified protein [4]” (setting [9]) it was “(3.0 ± 0.09) × 10^6 s^-1M^-1”; in the series “purified protein [5]” (setting [10]) it was “(1.9 ± 0.2) × 10^7 s^-1M^-1”.

B2: Il-DyP4 (Irpex lacteus) (protein)
chain: SAGNDSLPFENIQGDILVGMKKDKEKFVFFHINNATAFKSVLKTYAPANITSVATIIGPVANQPLAFVNLAFSHAGFGALNVTDDLQDTAFSDGQFKDSPNLGDDTSTWEEAFKGTNVDGVFLIGSNDESITAQYRDDLNAKFGDAWTIVYDLDSAARPGNEKGHEHFGYLDGISNPTIPGFGTPHPGQAVVDPGIIFTGRSKDPVMNRPSWALDGSFLVFRKLKQLVPEFNKYVLDNALQNQAGNLTVEEGAELLGSRMFGRWKSGAPIDLSPDFDDPALGNDIERNNNFNYSHPGSDLATDQTRCPFTAHIRKTNPRDLEGQGLFGDTFHAIRAGTPYGPEVTDYEASSNTTTIDRGLAFVEYQSVIGNGFRFQQQAWANNPRFPFSKGPSIQLGLDPVIGQGSPRETFGLDPRNASESFTVPQVIISNGGEYFFSPSITAIVEKFAA
notes: 502 aa given, 52-aa signal peptide stated
Turning to B2, the Km in the series “purified protein [1]” (setting [11]) was 24 ± 7.5 µM; in the series “purified protein [2]” (setting [12]), 159 ± 61 µM; in the series “purified protein [3]” (setting [13]), 133 ± 34 µM; in the series “purified protein [4]” (setting [14]) it was 62 ± 11 µM; in the series “purified protein [5]” (setting [12]), 58 ± 3 µM; in the series “purified protein [6]” it was “(2.1 ± 0.98) × 10^4 μM”. The kcat in the series “purified protein [1]” (setting [11]) was 413 ± 34 s⁻¹; in “purified protein [2]” (setting [12]), 267 ± 96 s⁻¹; in the series “purified protein [3]” (setting [13]), 5345 ± 921 s⁻¹; in “purified protein [4]” (setting [14]), 8356 ± 747 s⁻¹; in “purified protein [5]” (setting [12]), 4896 ± 131 s⁻¹; in the series “purified protein [6]”, 108 ± 47 s⁻¹. Further, the kcat/Km entry in “purified protein [1]” (setting [11]) is reported as “(1.7 ± 0.1) × 10^7 s^-1M^-1”; in the series “purified protein [2]” (setting [12]), “(1.7 ± 0.6) × 10^6 s^-1M^-1”; in the series “purified protein [3]” (setting [13]), “(4.0 ± 0.7) × 10^7 s^-1M^-1”; in “purified protein [4]” (setting [14]) it was “(1.3 ± 0.1) × 10^8 s^-1M^-1”; in “purified protein [5]” (setting [12]), “(8.4 ± 0.2) × 10^7 s^-1M^-1”; in the series “purified protein [6]”, “(5.2 ± 2.3) × 10^3 s^-1M^-1”.

The values above are taken from publication PMC6049852, “Comprehensive investigation of a dye-decolorizing peroxidase and a manganese peroxidase from Irpex lacteus F17, a lignin-degrading basidiomycete” (AMB Express, 2018).
